Results published in US20240209080A1 (PROFOUNDBIO US, published 2024).

Tests used:
[1] = target: T1, human FOLR1 on cells (Hela, RPTEC/TERT1, OVCAR3, OV90, IGROV-1, JEG-3, KB, NCI-H441) (human, UniProt P15328 25-234); experiment: cell-based or functional assay
[2] = target: T2, Recombinant His-tagged FOLR1 (Example 5 ELISA) (UniProt P15328 25-233, limits assumed); experiment: ELISA on coated recombinant His-tagged FOLR1, OD450; unit from the axis 'ADC conc ng/ml'
T2 construct: also called FOLR1-his; recombinant protein FOLR-1; not shown: His tag

[3] = target: T3, human FOLR1 protein, His Tag (ACRO-FO1-H52H1) (human, UniProt P15328 25-233); experiment: ELISA OD450 on human FOLR1 divided by OD450 of IgG level ELISA
T3 construct: not shown: His tag

[4] = target: T2, Recombinant His-tagged FOLR1 (Example 5 …); experiment: ELISA on coated recombinant His-tagged FOLR1, OD450; unit from the axis 'ng/ml'; curves labelled without '-ADC'
[5] = target: T1, human FOLR1 on cells (Hela, …); experiment: flow cytometry on JEG-3 cells, PE anti-human Fc; unit from the axis 'Con.nM'

T1 sequence (P15328 25-234): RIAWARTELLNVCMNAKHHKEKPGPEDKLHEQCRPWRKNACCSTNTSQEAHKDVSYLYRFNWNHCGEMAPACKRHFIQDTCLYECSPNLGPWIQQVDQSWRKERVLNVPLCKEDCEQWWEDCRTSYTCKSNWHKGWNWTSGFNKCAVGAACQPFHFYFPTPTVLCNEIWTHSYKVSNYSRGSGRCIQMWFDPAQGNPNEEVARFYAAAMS
T2 sequence (P15328 25-233 limits assumed): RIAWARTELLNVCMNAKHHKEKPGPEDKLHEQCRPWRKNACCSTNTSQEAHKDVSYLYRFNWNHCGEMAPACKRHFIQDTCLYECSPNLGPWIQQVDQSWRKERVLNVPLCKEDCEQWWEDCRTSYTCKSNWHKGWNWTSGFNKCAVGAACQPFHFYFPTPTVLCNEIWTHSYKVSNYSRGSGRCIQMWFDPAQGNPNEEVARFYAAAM
T3 sequence (P15328 25-233 limits assumed): as above

B1: F8-ADC (antibody F8 conjugated to mc-VC-PAB-MMAE) (antibody, V domains shown)
VH: EVQLLESGGGVVQHGRSLRLSCAASGFTFSSYGMHWVRQAPGKGLEWVAVISYDGSNKYYADSVKGRFTISRDNSKNTLYLQMNSLRAEDTAVYYCARPRAYYGAYGSSFDYWGQGTQVTVSS
VL: EIVMTQSPSSVSASVGDRVAITCRASQGISSWLAWYQQKPGKAPKLLIYAASSLQSGVPSRFSGSGSGTDFTLTISSLQPEDFATYYCQQSYSTPLTFGGGTKVDIK
modifications: mc-VC-PAB-MMAE on cysteine thiols after TCEP reduction (positions not stated; DAR within 3~4)
notes: Antibody-drug conjugate; also called F8 immunoconjugate
[1]
  Internalization ratio (%), Hela, 4 h: 45.7%
  Internalization ratio (%), Hela, 24 h: 73.1%
  Internalization ratio (%), OV90, 4 h: 32.7%
  Internalization ratio (%), OVCAR3, 4 h: 34.5%
  Internalization ratio (%), OVCAR3, 24 h: 47.6%
[2]
  EC50: 6.53 ng/mL

B2: F26-ADC (antibody F26 conjugated to mc-VC-PAB-MMAE) (antibody, V domains shown)
VH: EVQLLESGGGVVQRGRSLRLSCAASGFTFSSYGMHWVRQAPGKGLEWVAVISYDGSNKYYADSVKGRFTISRDNSKNTLYLPMNSLRAEDTAVYYCARPRAYYGAYGSSFDYWGQGTQVTVSS
VL: EIVMTQSPSSVSASVGDRVAITCRASQGISSWLAWYQQKPGKAPKLLIYAASSLQSGVPSRFSGSGSGTDFTLTISSLQPEDFATYYCQQSYSTPLTFGGGTKVDIK
modifications: mc-VC-PAB-MMAE on cysteine thiols after TCEP reduction (positions not stated; DAR within 3~4)
notes: Antibody-drug conjugate; also called F26 immunoconjugate
[1]
  Internalization ratio (%), Hela, 4 h: 43.3%
  Internalization ratio (%), Hela, 24 h: 75.5%
  Internalization ratio (%), OV90, 4 h: 21.6%
  Internalization ratio (%), OVCAR3, 4 h: 38.3%
  Internalization ratio (%), OVCAR3, 24 h: 48.1%
[2]
  EC50: 8.04 ng/mL

B3: F131-ADC (antibody F131 conjugated to mc-VC-PAB-MMAE) (antibody, V domains shown)
VH: EVQLLESGGGVVQPGRSLRLSCAASGFTFSSYGMHWVRQAPGKGLEWVAVISYDGSNKYYADSVKGRFTISRANSKNTLYLQMNSLRAEDTAVYYCARPRAYYGAYGSSFDYWGQGTQVTVSS
VL: EIVMTQSPSSVSASVGDRVAITCRASQGISSWLAWYQQKPGKAPKLLIYAASSLQSGVPSRFSGSGSGTDFTLTISSLQPEDFATYYCQQSYSTPLTFGGGTKVDIK
modifications: mc-VC-PAB-MMAE on cysteine thiols after TCEP reduction (positions not stated; DAR within 3~4)
notes: Antibody-drug conjugate; also called F131 immunoconjugate
[1]
  Internalization ratio (%), Hela, 4 h: 50%
  Internalization ratio (%), Hela, 24 h: 74.8%
  Internalization ratio (%), OV90, 4 h: 15%
  Internalization ratio (%), OVCAR3, 4 h: 35.2%
  Internalization ratio (%), OVCAR3, 24 h: 47.7%
[2]
  EC50: 6.64 ng/mL

B4: FR107-ADC (reference antibody mirvetuximab huFR107 conjugated to mc-VC-PAB-MMAE) (antibody, V domains shown)
VH: QVQLVQSGAEVVKPGASVKISCKASGYTFTGYFMNWVKQSPGQSLEWIGRIHPYDGDTFYNQKFQGKATLTVDKSSNTAHMELLSLTSEDFAVYYCTRYDGSRAMDYWGQGTTVTVSS
VL: DIVLTQSPLSLAVSLGQPAIISCKASQSVSFAGTSLMHWYHQKPGQQPRLLIYRASNLEAGVPDRFSGSGSKTDFTLTISPVEAEDAATYYCQQSREYPYTFGGGTKLEIK
modifications: mc-VC-PAB-MMAE on cysteine thiols after TCEP reduction (positions not stated; DAR within 3~4)
notes: Control conjugate
[1]
  Internalization ratio (%), Hela, 4 h: 58.4%
  Internalization ratio (%), Hela, 24 h: 75.1%
  Internalization ratio (%), OV90, 4 h: 28%
  Internalization ratio (%), OVCAR3, 4 h: 26.3%
  Internalization ratio (%), OVCAR3, 24 h: 44.8%
[2]
  EC50: 3.39 ng/mL

B5: anti-FOLR1 antibody F1 (antibody, V domains shown)
VH: EVQLLESGGGVVQPGRSLRLSCAASGFTFSSYGMHWVRQAPGKGLEWVAVISYDGSNKYYADSVKGRFTISRDNSKNTLYLQMNSLRAEDTAVYYCARPRAYYGAYGSSFDYWGQGTQVTVSS
VL: EIVMTQSPSSVSASVGDRVAITCRASQGISSWLAWYQQKPGKAPKLLIYAASSLQSGVPSRFSGSGSGTDFTLTISSLQPEDFATYYCQQSYSTPLTFGGGTKVDIK
notes: also called clone F1
[3]
  Target binding/IgG level: 1.08 ratio of OD450

B6: anti-FOLR1 antibody F8 (antibody, V domains shown)
VH: EVQLLESGGGVVQHGRSLRLSCAASGFTFSSYGMHWVRQAPGKGLEWVAVISYDGSNKYYADSVKGRFTISRDNSKNTLYLQMNSLRAEDTAVYYCARPRAYYGAYGSSFDYWGQGTQVTVSS
VL: EIVMTQSPSSVSASVGDRVAITCRASQGISSWLAWYQQKPGKAPKLLIYAASSLQSGVPSRFSGSGSGTDFTLTISSLQPEDFATYYCQQSYSTPLTFGGGTKVDIK
notes: also called clone F8
[3]
  Target binding/IgG level: 1.12 ratio of OD450
[4]
  EC50: 8.48 ng/mL

B7: anti-FOLR1 antibody F26 (antibody, V domains shown)
VH: EVQLLESGGGVVQRGRSLRLSCAASGFTFSSYGMHWVRQAPGKGLEWVAVISYDGSNKYYADSVKGRFTISRDNSKNTLYLPMNSLRAEDTAVYYCARPRAYYGAYGSSFDYWGQGTQVTVSS
VL: EIVMTQSPSSVSASVGDRVAITCRASQGISSWLAWYQQKPGKAPKLLIYAASSLQSGVPSRFSGSGSGTDFTLTISSLQPEDFATYYCQQSYSTPLTFGGGTKVDIK
notes: also called clone F26
[3]
  Target binding/IgG level: 1.21 ratio of OD450
[4]
  EC50: 4.68 ng/mL

B8: anti-FOLR1 antibody F48 (antibody, V domains shown)
VH: EVQLLESGGGVVQPGRSLRLSCAASGFTFSSYGMHWVRQAPGKGLEWVAVISYDGSNKYYADSVKGRFTISRDNSKNTLYLHMNSLRAEDTAVYYCARPRAYYGAYGSSFDYWGQGTQVTVSS
VL: EIVMTQSPSSVSASVGDRVAITCRASQGISSWLAWYQQKPGKAPKLLIYAASSLQSGVPSRFSGSGSGTDFTLTISSLQPEDFATYYCQQSYSTPLTFGGGTKVDIK
notes: also called clone F48
[3]
  Target binding/IgG level: 1.12 ratio of OD450

B9: anti-FOLR1 antibody F100 (antibody, V domains shown)
VH: EVQLLESGGGVVQPGRSLRLSCAASGFTFSSYGMHWVRQAPGKGLEWVAVISYDGSNKYYADSVKGRFTISRPNSKNTLYLQMNSLRAEDTAVYYCARPRAYYGAYGSSFDYWGQGTQVTVSS
VL: EIVMTQSPSSVSASVGDRVAITCRASQGISSWLAWYQQKPGKAPKLLIYAASSLQSGVPSRFSGSGSGTDFTLTISSLQPEDFATYYCQQSYSTPLTFGGGTKVDIK
notes: also called clone F100
[3]
  Target binding/IgG level: 1.48 ratio of OD450

B10: anti-FOLR1 antibody F112 (antibody, V domains shown)
VH: EVQLLESGGGVVQPGRSLRLSCAASGFTFSSYGMHWVRQAPGKGLEWVAVISYDGSNKYYADSVKGRFTISRHNSKNTLYLQMNSLRAEDTAVYYCARPRAYYGAYGSSFDYWGQGTQVTVSS
VL: EIVMTQSPSSVSASVGDRVAITCRASQGISSWLAWYQQKPGKAPKLLIYAASSLQSGVPSRFSGSGSGTDFTLTISSLQPEDFATYYCQQSYSTPLTFGGGTKVDIK
notes: also called clone F112
[3]
  Target binding/IgG level: 1.12 ratio of OD450

B11: anti-FOLR1 antibody F123 (antibody, V domains shown)
VH: EVQLLESGGGVVQPERSLRLSCAASGFTFSSYGMHWVRQAPGKGLEWVAVISYDGSNKYYADSVKGRFTISRANSKNTLYLQMNSLRAEDTAVYYCARPRAYYGAYGSSFDYWGQGTQVTVSS
VL: EIVMTQSPSSVSASVGDRVAITCRASQGISSWLAWYQQKPGKAPKLLIYAASSLQSGVPSRFSGSGSGTDFTLTISSLQPEDFATYYCQQSYSTPLTFGGGTKVDIK
notes: also called clone F123
[3]
  Target binding/IgG level: 1.06 ratio of OD450

B12: anti-FOLR1 antibody F131 (antibody, V domains shown)
VH: EVQLLESGGGVVQPGRSLRLSCAASGFTFSSYGMHWVRQAPGKGLEWVAVISYDGSNKYYADSVKGRFTISRANSKNTLYLQMNSLRAEDTAVYYCARPRAYYGAYGSSFDYWGQGTQVTVSS
VL: EIVMTQSPSSVSASVGDRVAITCRASQGISSWLAWYQQKPGKAPKLLIYAASSLQSGVPSRFSGSGSGTDFTLTISSLQPEDFATYYCQQSYSTPLTFGGGTKVDIK
notes: also called F131 mAb; clone F131
[3]
  Target binding/IgG level: 1.02 ratio of OD450
[5]
  EC50: 1.55 nM
[4]
  EC50: 8.46 ng/mL

B13: anti-FOLR1 antibody F138 (antibody, V domains shown)
VH: EVQLLESGGGVVQPGRSLRLSCAASGFTFSSYGMHWVRQAPGKGLEWVAVISYDGSNKYYADSVKGRFTISTHNSKNTLYLQMNSLRAEDTAVYYCARPRAYYGAYGSSFDYWGQGTQVTVSS
VL: EIVMTQSPSSVSASVGDRVAITCRASQGISSWLAWYQQKPGKAPKLLIYAASSLQSGVPSRFSGSGSGTDFTLTISSLQPEDFATYYCQQSYSTPLTFGGGTKVDIK
notes: also called clone F138
[3]
  Target binding/IgG level: 1.2 ratio of OD450

B14: anti-FOLR1 antibody F40 (antibody, V domains shown)
VH: EVQLLESGGGVVQPGRSLRLSCAASGFTFSSYAMHWVRQAPGKGLEWVAVISYDGSNKYYADSVKGRFIISRDNSKNTVYLQMNSLRAEDTAVYYCARPTYVFTYTGSSFDYWGQGTQVTVSS
VL: DIQVTQSPSSLSASLGDTVSITCRASRGLTDSVAWYQQKPGQAPKLLIYAASTLQSGVPSRFGGSGSGSYFTLTITSLQPEDVATYYCQNYKSAPWTFGQGTKVEIK
notes: also called clone F40
[3]
  Target binding/IgG level: 1.02 ratio of OD450
